In data set [1] the target is T1, acidic fibroblast growth factor (aFGF) (UniProt P05230 16-155, limits assumed). Briefly: microplate thermal shift assay, turbidity signal, 50 µM ligand.
Data set [2] deals with human α-thrombin (human), P00734. Description: microplate thermal shift assay, 1,8-ANS fluorescence, 50 µM ligand, single ligand.
Data set [3] shares this target. Description: microplate thermal shift assay; Kd at Tm of Hirugen for thrombin with 50 µM 3dp-4660 present.
Data set [4] shares this target. Description: microplate thermal shift assay; Kd at 298 K of Hirugen for thrombin with 50 µM 3dp-4660 present.
The target is the same in data set [5]. Briefly: microplate thermal shift assay; Kd at Tm of Hirugen for thrombin with 200 µM heparin 5000 present.
Data set [6] has the same target. Description: microplate thermal shift assay; Kd at 298 K of Hirugen for thrombin with 200 µM heparin 5000 present.
For data set [7] the target is unchanged. Briefly: microplate thermal shift assay; 50 µM Hirugen added to thrombin with 50 µM 3dp-4660 present, shift against TH/3dp-4660.
For data set [8] the target is unchanged. Briefly: microplate thermal shift assay; 50 µM Hirugen added to thrombin with 200 µM heparin 5000 present, shift against TH/heparin 5000.
Data set [9] addresses T1, acidic fibroblast growth factor (aFGF). Description: microplate thermal shift assay, turbidity signal; Kd at 298 K estimated with equation (3).
Data set [10] shares this target. Description: microplate thermal shift assay, turbidity signal; Kd at Tm (322.15 K) calculated with equation (1).

T1 sequence (P05230 16-155 limits assumed): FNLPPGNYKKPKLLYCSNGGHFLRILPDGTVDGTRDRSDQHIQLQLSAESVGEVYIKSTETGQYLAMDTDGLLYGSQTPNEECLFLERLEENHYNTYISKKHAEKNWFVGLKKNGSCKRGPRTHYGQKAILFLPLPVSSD

B1: EEEEE (peptide)
peptide: EEEEE
Turning to B1, the ΔTm in data set [1] was 0 ° K.

B2: Hirugen (hirudin 53-64), P01050 53-64 (peptide)
peptide: DGDFEEIPEEYL
modifications: not checked
For B2, the results for the ΔTm in data set [2], in data set [7] and in data set [8] were 5.8 ° K, 4.6 ° K and 2.6 ° K, respectively. Moreover, the Kd was 731 nM in [3], 54 nM in data set [4], 4250 nM in data set [5] and 478 nM in [6].

B3: EEEEEEEE (peptide)
peptide: EEEEEEEE
In the case of B3, the ΔTm in [1] turned out to be 5 ° K. The results for the Kd in [9] and in [10] were 3040 nM and 10100 nM, respectively.

These data come from patent US6849458 (dated 2005).
